Biological target: Alexa-546-labeled H3-H4(E63C) (UniProt P61830)
Assay: other fluorescence titration

Sequence of Vps75_(1−223) (Vps75 lacking the C-terminal acidic domain) (P53853 1-223): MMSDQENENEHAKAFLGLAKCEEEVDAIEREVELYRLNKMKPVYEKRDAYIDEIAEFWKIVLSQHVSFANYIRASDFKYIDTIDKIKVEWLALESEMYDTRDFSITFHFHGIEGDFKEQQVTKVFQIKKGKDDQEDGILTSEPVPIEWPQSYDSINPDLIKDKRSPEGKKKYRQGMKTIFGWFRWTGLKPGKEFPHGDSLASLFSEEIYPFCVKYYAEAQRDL

Substance: Rtt109 (recombinant, purified) (from UniProt Q07794 1-436) (enzyme)
- Kd: 150 nM

Substance: Vps75_(1−223) (Vps75 lacking the C-terminal acidic domain) (from UniProt P53853 1-223) (domain or fragment)
- Kd: 13 nM
